This is an account of results in patent US7105166.

As usually defined, the IC50 is the concentration at which inhibition is half-maximal. The Kd is a measure of binding affinity in units of concentration.

The target of assay [1] is CTLA4Ig (human). The assay can be described thus: 125I-B7Ig (4 nM) on plate-coated CTLA4Ig.
In assay [2] the target is CTLA4Ig (human). The assay can be described thus: solid phase competition of 125I-B7Ig binding to immobilized CTLA4Ig.
For assay [3], the target named is CTLA4Ig (human). The assay can be described thus: Scatchard analysis of competition data, 125I-B7Ig on immobilized CTLA4Ig.
Assay [4] has as its target CD28Ig (human) [IgG part: P01857]. The assay can be described thus: inhibition of 125I-B7Ig binding to immobilized CD28Ig.
The target in assay [5] is CD28 expressed on transfected cells (human) (UniProt P10747). The assay can be described thus: inhibition of 125I-B7Ig binding to cell surface expressed CD28.
Assay [6] has as its target B7 antigen (B7-1, CD80) expressed on cells (human) (UniProt P33681). The assay can be described thus: cell-based or functional assay.
In a further assay the target is B7Ig (human) (UniProt P33681). The assay can be described thus: solid phase competition of 125I-B7Ig binding to immobilized CTLA4Ig.

For “B7Ig (from UniProt P33681 35-249; P01857 99-330) (Fc fusion)”, the radioactivity bound to wells treated without competitor in the assay with CTLA4Ig (human) [1] worked out at 28300 cpm. The substance further registered an IC50 with CTLA4Ig (human) [2] of 175 nM. Besides, the dissociation constant (Kd) with CTLA4Ig (human) [3] came out at 12 nM.
Regarding mAb 9.3 (antibody), the inhibition of ^125I-B7Ig binding in assay [4] and in assay [5] was above 90% throughout.
Regarding mAb BB-1 (antibody), in assay [6], the inhibition of Th-induced IgM production came to 65%. Also, in the assay with B7Ig (human), the 50% inhibitory concentration (IC50) stood at 22 nM.
